Measured values taken from the DeepSol protein solubility set.

test: soluble on expression in E. coli; label from the status in PepcDB or PDB records

| Sequence | soluble on expression in E. coli |
| --- | --- |
| MFRNVAELVELAESQAIPISEVMIRQEIEVTERSREAIIEQMENHLDVMEKAVRRGITEQVRSVSGLTGGDAVLLQDYLKKGNYLSSETVLDAVSKAVATNEVNAAMGTICATPTAGASGVVPGVLFGMEKRLSPTKEQKVRFLFTSGAFGFVVANNASISGAAGGCQAEVGSATGMAAAALVELAGGTPSQSAEAMAIALKNMLGLVCDPVAGLVEVPCVKRNAIGASIAITAADMALAGIQSRIPTDEVIDAMYKIGQAMPVAYKETAQGGLAATPKGRELEAKIFGVALDKK | not soluble |
| MFRTQSRYLVRSILANHCVLPSTRMAVSPILNQSIKFYSSKDNATDKSQEKEQPKSILNDDMLARAGFEDVDPKEETSNSEEQATKQTGRKRKRAQTSKDLQRERYANMFYLSALIFGVAGVGYMSRDWDSEKEQEEMDGKNVENGYTPKLMYERLSKRLGSLFTFFSEPAFENLLPPPPPEQYRRPLTLVVTLDDFLIHSNWDTQHGWRTGKRPGLDYFLGYLSQYYEIVVFSSNSQIYSDKTVNKLDPYHAYISYALFREACRYKDGKLIKDLSLLNRDLGKTVMIDVDEDSAALQPENSIIVKKWEGQPDEYLISLIPFLEYLATQPVKDVRPILNSYKDKSNIVAEFAERENKLREQWRKDHGGNNGKPNAGNFIAKLLGIPVPEPKMPLDIIREHGQLQYEHFQKYLQENAHKFLEEEQKLKDEFGKVTLNKLITEGAPNAEEIAKVQQQRALEEAQKQQEGHK | not soluble |
| MFSAKKRDKCIGEMSEKQLDLLVIGGGITGAGIALDAQVRGIQTGLVEMNDFASGTSSRSTKLVHGGLRYLKQFEIKLVAEVGKERAIVYENAPHVTTPEWMLLPIFKDGTFGKFSTSLGLKVYDYLADVRKDERRYMLNEKQTLEKEPLLRKENLKGGGIYVEYRTDDARLTLEIMKEAVARGAVALNYMKVESFIYDQGKVVGVVAKDRLTDTTHTIYAKKVVNAAGPWVDTLREKDRSKHGKYLKLSKGVHLVVDQSRFPLRQAVYFDTESDGRMIFAIPREGKTYIGTTDTFYDKDIASPRMTVEDRDYILAAANYMFPSLNLTADDVESSWAGLRPLIHEEGKKASEISRKDEIFFSDSGLISIAGGKLTGYRKMAERTVDAVAQGLNVNEPCTTAAIRLSGGLAEGAQGFPRFLDEASRKGAKLGFDADEVRRLAKLYGSNVDHVLNYAYEGKEEAEHYGLPALLLGQLQYGVEQEMVATPLDFFVRRTGALFFNISLVHQWKEAVLRWMAEEFSWTEEEKTRFQNELETELKMAVDPLFQVEPTTVLEHHHHHH | soluble |
| MFSGKRLKKRRITLGYSQSELADKLHINRSSYFNWENEKTKPNQSNLKQLAILLDVPETYFESEYKIVNTYLQLSLQNQEKVEKYAEELLQTQKVHEKIVPLFAVEVLSEIQLSAGPGEGLYDEFETETVYSEDEYTGFDIATWISGNSMEPVYKDGEVALIRSTGFDHDGAVYALNWNGSLYIKKLYREEDGFRMVSINPDVAERFIPFEDEIRIVGKIVGHFMPVIGGLEHHHHHH | soluble |
| MFSKKKDKFMVQLEEMVFNLDRAAIEFGKMDFNTHLDLKAYSDNIKTYESHGDELMHQVISDLNQTFITPIEREDILSLCNAIDDVLDAMEETSAMFEMYSIEYTDEYMAEFVENIQKAVAEMKLAVGLLVDKKLSHMRIHSINIKEFETNCDGILRQSMKHIFNSETDPITLIKIKDIYQSMEEIADKCQAVANNFETIIMKNSLEHHHHHH | soluble |
| MFSWLGTDDRRRKDPEVFQTVSEGLKKLYKSKLLPLEEHYRFHEFHSPALEDADFDNKPMVLLVGQYSTGKTTFIRYLLEQDFPGMRIGPEPTTDSFIAVMQGDMEGIIPGNALVVDPKKPFRKLNAFGNAFLNRFVCAQLPNPVLESISVIDTPGILSGEKQRISRGYDFAAVLEWFAERVDRIILLFDAHKLDISDEFSEVIKALKNHEDKMRVVLNKADQIETQQLMRVYGALMWSLGKIVNTPEVIRVYIGSFWSHPLLIPDNRKLFEAEEQDLFRDIQSLPRNAALRKLNDLIKRARLAKVHAYIISSLKKEMPSVFGKDNKKKELVNNLAEIYGRIEREHQISPGDFPNLKRMQDQLQAQDFSKFQPLKSKLLEVVDDMLAHDIAQLMVLVRQEESQRPIQMVKGGAFEGTLHGPFGHGYGEGAGEGIDDAEWVVARDKPMYDEIFYTLSPVDGKITGANAKKEMVRSKLPNSVLGKIWKLADIDKDGMLDDDEFALANHLIKVKLEGHELPTSCLPTSCPRPRGKLPSDGVGGHSDGQC | not soluble |
| MFTIEHLNFAWLQVRAGSKSAGVDGISVDLFESMATEQLQNIAYQLKEETYTANPAKGFYIPKKNGTKRLIGIHTVRDRIIQRLLLDELYFPLEDTFLDCSYAYRPGHSIQQAVQHLYGYYQYQPKWIIKADVADFFDNLSWALLLTYLEELSLEPSLLQLLEQQLKSGIIIAGQYRNFGKGVLQGGILSGALANLYLTSFDRKCLSQGINLVRYGDDFVIACNSWLEANRILDKITGWLGEVYLTLQPEKTQIFTPNDEFTFLGYRFAGGEVYAPPPPEPVRPGEWVINDSGTPYFRLKPKPRKPVSLEHHHHHH | not soluble |
| MFVLSIALLSCTTLCAATTEWWGDLRAHLNPARQAPFYDVTYDEKVNVCPQGLHADAIPEYVYFGTMLATMTVDEHDQCLQKCAEKPRCKAVNFFHPFAYQEKGFCELLTEGQLDNPSLMRPFRKATYYEKIRCRELDDVEDVEEAAPIGSEITEKLPEDMAREKKLDMSKLMKKLSAKVKEFNGGAGGFRAAR | not soluble |
| MFVVPRRLSSFLSLVHEYRHLARRSYVMETPSIDIQNIRAKYLNSHDPYLLESKLPTTSPFELFDIWFRNVASQSDLTFEEINAVSLSTVGKDLRPSSRMVLLKAYTPTGFSFYTNYTSRKGNQLEENPNAAMLFYWPKVNRQIRVEGVVEKLPDEMAVAYWNSRPVASRIGSKSSDQSKVVPDREFLESKKVALTELSVREGAQAITKPESWGGYHLIPRYFEFWQGQSDRLHDRIVFERDVDVWLLKRLSP | not soluble |
| MFWKFLVSGLVGSACSAYHRGPTNVSLALDPPTLSIIMDPSKDIVPIRAVIVGGGYAGSKTAYQLDSMFAVTHIDEKNFYELTNDIIPIITNPWKEDVNPKACRRMMVLHRYYLKRSNVVTGTVIGVDAKQVYLRDGRTVPYDLLFLATGERKPFPFQTRERTISGRVQELKRFNEFLQSCKKVAVVGGGPVGTSLAHDLASTRPDLQVHLFHQRAELLPRLPGVCRRHAQEKLLSNPNLHLHLLTRVTDIDGVVLPSNGDKAASSSSPARHSCAGQLVNPPTSNAAVAESSLTLATTNAPWWRSLLNTVWPRRGVVPDQYSVHYDTLQSKVQQQPSILQQVYYGKRDEVAECGVVQARGVEEGFDYVFALTGDTPRPIQCDELEGRSRKLPNILREHETRDGHYRVSTLMQFLDHPNIFGVGRCTNLPVMRGYGSSDIETRTLFRELNSVISNPTTMFLHSRDGVQLAHMRIPRIHVRLGVDDAVGCTPWSGGMTGVSSVHEFMQDRSYLLREFQKPVFYKQQDQAKVKQRMSQWMEEEITDIVDFSHC | not soluble |
| MGAAKNIWALANAEDAANDAEQIPYSSFVVDTSLPLPLMIPRIIELCKDLFKNWGELDDSLFSVERVSGGITNLLLKVSVKEDTNKEVSVTVRLYGPNTEYVINREREILAIKYLSAAGFGAKLLGGFGNGMVQSFINARTLEPSDMREPKIAAQIARELGKFHKVDIPGSKEPQLWVDILKFYEKASTLTFEEPDKQKLFETISFEELHKEIIELREFTGLLNAPVVFAHNDLLSGNFMLNDEEEKLYLIDFEYGSYNYRGFDIGNHFNEYAGYDCDYSLYPSKEEQYHFIKHYLQPDKPDEVSIAEVESVFVETDAYKLASHLYWAIWAIIQARMSPIEFEYLGYFFLRYNEYKKQKPLTFSLVTSHLSASL | soluble |
| MGASQSAEQEARPEVVRIDRNEIPEEYKTVGVSSDVVSRVNATRVAGNDGESDRLRQELAREREEKARLREDMAKLSQLQQRKTAGISAAPVSISGNDLEERKKIFDDTVERVQKQFFAYHRENVCQDNENEIVRCLQENPGRVLKCAPLTEAFEKCVGEFRQQVLKGN | not soluble |
| MGAVGRGRRMSERHLRRSTHKVGDITLGAVHRLNCHCGAVQIDLDLPHGLVDPRRCDCSMCRRRGAIVASVPLQGLHVRQGEDVLRLYQFNTHAAAHYFCGVCGIYTHHRRRSNPNEYGYNVGCLEGVNPYALNITVPVEDGIHHPADRVAPQLEHHHHHH | not soluble |
| MGAVSAFSWASSGRLHALEVFVMKIPKTYDEIMEHFGGLIDEVTAELLESYAKGETVRVSEALAKSGRVAVEGVVLRVFPVRHFSKNGRSGKVGSVVIQDDCTVRVNFWNEAAEIIEAGDIVEGARIKVRGYARGEEIHVNSLSEVEVFVDFVNISELDEKVGERVNVKGFVSGLGEPEKANEIYISDETGRVKVLLENESLYYAVDIGSYVEIYNALAGEDGIYVDRNSRFSVGELEHHHHHH | not soluble |
| MGCLSYMVLSGDEALVVDPLRFIDVYEQVAQQEGVTITHIVDSHLHADHLSGGKALAERTGAAYYLMKSEGAVFDFEPLEQHETIDFENVHLEVLAVKTPGHTPGSVSFFVNGKWLFSGDTIFVGGLGRPDLGGKVAEWAEDLYHTVYEKVAAMADDVIVLPAHYANLDEEINAEGYVGDTLGRIRARNEMMQNKAKDEFIDLVIQGLEHHHHHH | not soluble |
| MGCVPRIEFGCSSQSLTLSWNLRAWNLCRLNTISHFQKLPYPLVASTRKHYKNSLLLKRFLVGVGTEESSLSEDLLDESLSRPLTSDELKSLLIDTERSKLVKKLSEANQQNRFLKRQEHEITNIKTELALMELEVQALVKLAEEIANLGIPQGSRKISGKYIQSHLLSRLDAVQKKMKEQIKGVEAAQSKEVHVFWIGMAESVQVMGSFDGWSQREDLSPEYSALFTKFSTTLFLRPGRYEMKFLVDGEWQISPEFPTSGEGLMENNVLVVE | soluble |
| MGCYHPLSGTDGTLMRHTLPIAPQFYVTAPQPCPYLAGRMERKLFTALQGEGAERLNNALSQQGFRRSQNVLYRPSCADCAACLSARIDVSAFRASRSQKRAMRRNAHLTRRATSPWATDEQYELFRRYLDSRHADGGMADMDVFEFAAMIEETPIRSRVIEYAHRDTRALIGVSLTDVLDDGLSMVYSFYDPDLHRDSLGTHMILDHIAIAREAGLPYVYLGYWVPGSPKMGYKSRFSGLEIYLGGRWQAMTDPEAHDAIRHPLSTDPIAEQVANIQLPDRWPTGDLEHHHHHH | not soluble |
| MGDEVGRGHFGYTCAAKIKKGARKGDAVAVKVIPKAKMTTSIAIEDVRREVKILKALAGHKNLVQFYDAYEDNDNVYIVMELCEGGELLDRILSRGGKYSEDDAKAVLVQILNVVSFCHIQGVVHRDLKPENFLFTSKDENSQLKAIDFGLSDFVKPDERLNDIVGSAYYVAPEVLHRCYSTEADVWSIGVIAYILLCGSRPFWARTESGIFRSVLKADPSYNEAPWPSLTLEAMDFVKRLLCKDPRRRMTAAQALSHPWIRNYNDIKLPLDILIFRLIKAYIRSSSLRKAALRALSKTLTVDELFYLKGQFSLLEPDRNGCITLDNIRMALTREATYAMKESRVQEILVSLSALQYRRMDFQEFCAAAVSVHQLEALDRWEQHARSAYDFFEKDGNRAIVIDELASELGLSPSVPLHVVLQDWIRHTDGKLSFLGFVKLLHGMSSRSLSKMR | not soluble |
| MGDILMHYVRKAHEHEVNEVVKYPHTITNTELEEILVSGEECTVLDVREAAEFAFGHIPSATSMPLGELESLVLDKTKQIYVVCRTGNRSDVACQMLKEKGYTNVKNVIPGMIEWQGNIENLEHHHHHH | not soluble |
